Measured values reported in patent US20160222109A1 (DYAX, published 2016).

Legend:
[1] = biological target: T1, soluble human FcRn (extra-cellular domain of heavy chain and β2M) (human, UniProt P55899 24-297; P61769 21-119); assay: Biacore, FcRn on chip, pH 6.0
T1 construct: also called shFcRn; soluble hFcRn

soluble monkey FcRn [2] = biological target: T2, soluble monkey FcRn (monkey (cyno), UniProt Q8SPV9 24-297; Q8SPW0 21-119); assay: Biacore, FcRn on chip, pH 6.0
T2 construct: also called cyno
T2 sequence (Q8SPV9 24-297, chain 1 of 2): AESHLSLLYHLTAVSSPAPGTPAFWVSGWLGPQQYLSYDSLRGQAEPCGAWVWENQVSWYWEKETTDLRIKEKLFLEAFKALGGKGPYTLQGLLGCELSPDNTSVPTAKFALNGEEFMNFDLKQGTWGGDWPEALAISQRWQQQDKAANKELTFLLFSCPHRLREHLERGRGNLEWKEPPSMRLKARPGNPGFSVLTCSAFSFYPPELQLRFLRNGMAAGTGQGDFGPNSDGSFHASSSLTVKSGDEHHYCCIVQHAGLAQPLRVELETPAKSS
T2 sequence (Q8SPW0 21-119, chain 2 of 2): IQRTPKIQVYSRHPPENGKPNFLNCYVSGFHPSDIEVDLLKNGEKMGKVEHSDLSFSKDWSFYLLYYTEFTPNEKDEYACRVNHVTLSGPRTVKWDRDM

[3] = biological target: T1, soluble human FcRn (extra-cellular …); assay: Biacore, FcRn on chip, pH 7.4
soluble monkey FcRn [4] = biological target: T2, soluble monkey FcRn; assay: Biacore, FcRn on chip, pH 7.4
[5] = biological target: T3, rat FcRn / rat β2M expressed on cells (rat, UniProt P13599 23-366; P07151 21-119); assay: FACS binding, Alexa488-mAb, pH 7.4
T3 construct: also called rat FcRn (cells); rat fibroblasts expressing rat FcRn
T3 sequence: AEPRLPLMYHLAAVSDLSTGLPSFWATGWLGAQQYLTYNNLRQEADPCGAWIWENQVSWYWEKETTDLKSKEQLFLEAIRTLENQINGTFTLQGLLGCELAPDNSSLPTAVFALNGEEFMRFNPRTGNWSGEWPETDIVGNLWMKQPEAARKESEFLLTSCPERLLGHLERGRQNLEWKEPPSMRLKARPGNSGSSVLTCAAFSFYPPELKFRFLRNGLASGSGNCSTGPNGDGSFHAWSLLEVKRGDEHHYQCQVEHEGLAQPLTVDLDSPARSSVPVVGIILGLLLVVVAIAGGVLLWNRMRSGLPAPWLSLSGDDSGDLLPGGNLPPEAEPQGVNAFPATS
T3 sequence (b2m): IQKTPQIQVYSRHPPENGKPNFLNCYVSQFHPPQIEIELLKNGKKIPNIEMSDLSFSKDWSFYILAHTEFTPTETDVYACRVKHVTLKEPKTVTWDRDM

[6] = biological target: T4, murine FcRn / murine β2M expressed on 3T3 cells (mouse, UniProt Q61559 22-365; P01887 21-119); assay: FACS binding, Alexa488-mAb, pH 7.4
T4 construct: whole, on cells; also called mouse FcRn; 3T3 FcRn cells
T4 sequence (looked up): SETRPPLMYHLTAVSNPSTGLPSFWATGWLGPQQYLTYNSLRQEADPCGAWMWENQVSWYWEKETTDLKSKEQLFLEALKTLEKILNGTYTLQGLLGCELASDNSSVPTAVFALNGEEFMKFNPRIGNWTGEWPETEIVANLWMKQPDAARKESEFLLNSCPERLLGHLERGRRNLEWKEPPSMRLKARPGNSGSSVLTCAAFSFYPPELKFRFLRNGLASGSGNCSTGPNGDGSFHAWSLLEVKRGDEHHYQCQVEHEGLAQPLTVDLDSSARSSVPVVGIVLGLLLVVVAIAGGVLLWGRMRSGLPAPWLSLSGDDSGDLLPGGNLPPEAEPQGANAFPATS
T4 sequence (b2m, looked up): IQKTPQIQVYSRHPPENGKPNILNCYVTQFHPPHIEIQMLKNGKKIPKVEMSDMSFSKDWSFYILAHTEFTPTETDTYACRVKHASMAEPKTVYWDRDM

[7] = biological target: T1, soluble human FcRn (extra-cellular …); assay: Biacore, FcRn on chip, pH 7.4; pH 7.4; n = 2

T1 sequence (P55899 24-297 limits assumed, chain 1 of 2): as the sequence (Q8SPV9 24-297, chain 1 of 2) above, with D39N, Q44E, S99G, G189S, N190S, M217L, T269S counted along it
T1 sequence (P61769 21-119 limits assumed, chain 2 of 2): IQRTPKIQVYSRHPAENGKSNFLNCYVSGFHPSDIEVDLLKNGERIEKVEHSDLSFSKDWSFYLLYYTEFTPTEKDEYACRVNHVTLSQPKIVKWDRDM

B1: 3B3.11 (antibody)
heavy: VKLQESGPELVKPGASVKISCKASGYAFSRSWMNWVKQRPGQGLEWIGRIHPGDGDTNYNGKFKGKATLTVAKSSSTAYMQLSSLTSVDSAVYFCANEGSPYFDYWGQGTTLTVSSAKTTPPSVYPLAPGSAAQTNSMVTLGCLVKGYFPEPVTVTWNSGSLSSGVHTFPAVLQSDLYTLSSSVTVPSSTWPSETVTCNVAHPASSTKVDKKLE
light: DIQLTQSPTTVAASPGEKITITCSASSSISSNYLHWYQQKPGFSPKLLIYRTSNLASGVPARFSGSGSGTSYSLTIGTMEAEDVATYYCQQGSNIPLTFGAGTKLELKRADAAPTVSIFPPSSEQLTSGGASVVCFLNNFYPKDINVKWKIDGSERQNGVLNSWTDQDSKDSTYSMSSTLTLTKDEYERHNSYTCEATHKTSTSPIVKSFNKNE
notes: also called mAb 3B3.11
- Kd [1]: 1.17 nM
- koff [1]: 0.000176 s⁻¹
- Kd (soluble monkey FcRn [2]): 3.23 nM
- koff (soluble monkey FcRn [2]): 0.000552 s⁻¹
- Kd [3]: 0.16 nM
- Kd (soluble monkey FcRn [4]): 3.24 nM
- koff (soluble monkey FcRn [4]): 0.000247 s⁻¹
- binding result [5]: no binding
- binding result [6]: binds
- koff [7]: 1.45e-06 s⁻¹
